This test addresses purified TslA lipase domain (N-terminal domain of SAOUHSC_00406) (S. aureus) (UniProt Q2G0W8). Put plainly: ITC; 30 uM TslA in the cell, 300 uM TilA in the syringe; 20 mM HEPES pH 7.5, 150 mM NaCl, 25 °C; Microcal PEAQ-ITC. A general note: Isothermal titration calorimetry measures the heat released or taken up as one component is titrated into another.

B1: purified TilA lacking its signal sequence, His tag removed (SAOUHSC_00405) (natural protein)
chain: CGNMKDEQKKEEQTNKTDSKEEQIKKSFAKTLDMYPIKNLEDLYDKEGYRDGEFKKGDKGTWTILTGFSKSNKPGVLDDEGMVLYLNRNTKKATGYYFVNKVYDDISKNHNEKKYRVELKNNKIVLLDNVEDKKLKQKIENFKFFSQYADFKDLKNYQDGNITTNENVPSYEAQYKMNNSDKNVKKLREIYPITTNNSPNLKLYIDGDIKGSSVGYKKIEYKFSKDKGQETTLRDYLNFGPSEGENVE
By Kd is commonly meant the concentration at which binding is half-saturated. The low end stands for a tighter complex, the high end for a looser complex. What is called stoichiometry N is a count of units in the complex or per binding partner. In turn, B1 showed a Kd of 14.2 nM, a dH of -20.5 kcal/mol and a stoichiometry N of 0.88.

These data come from publication PMC10730906.
